From patent US20180099015A1 (ADCURE BIOTECHNOLOGIES, published 2018) come the findings set out here.

Assay [1] addresses blood coagulation factor X (UniProt P00742). Put plainly: FX binding to immobilised virus (2900 RU); method not given, SPR (Biacore) named for FIG. 14B. In general terms: In SPR one partner is held on a chip, and binding of the other changes the refractive index at the surface.
A further assay concerns the target T1, sCAR (UniProt P78310 20-237).
T1 construct: also called soluble coxsackievirus and Ad receptor (CAR)
T1 sequence: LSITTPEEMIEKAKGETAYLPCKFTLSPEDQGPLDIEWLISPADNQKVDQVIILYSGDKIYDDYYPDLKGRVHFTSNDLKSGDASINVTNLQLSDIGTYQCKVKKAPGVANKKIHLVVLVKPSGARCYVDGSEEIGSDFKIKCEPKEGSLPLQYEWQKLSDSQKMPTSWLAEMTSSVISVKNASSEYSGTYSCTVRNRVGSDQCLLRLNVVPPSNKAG
Description: not stated; row marked with an asterisk that has no footnote.

Chain of blood coagulation factor X (P00742 41-488 limits assumed): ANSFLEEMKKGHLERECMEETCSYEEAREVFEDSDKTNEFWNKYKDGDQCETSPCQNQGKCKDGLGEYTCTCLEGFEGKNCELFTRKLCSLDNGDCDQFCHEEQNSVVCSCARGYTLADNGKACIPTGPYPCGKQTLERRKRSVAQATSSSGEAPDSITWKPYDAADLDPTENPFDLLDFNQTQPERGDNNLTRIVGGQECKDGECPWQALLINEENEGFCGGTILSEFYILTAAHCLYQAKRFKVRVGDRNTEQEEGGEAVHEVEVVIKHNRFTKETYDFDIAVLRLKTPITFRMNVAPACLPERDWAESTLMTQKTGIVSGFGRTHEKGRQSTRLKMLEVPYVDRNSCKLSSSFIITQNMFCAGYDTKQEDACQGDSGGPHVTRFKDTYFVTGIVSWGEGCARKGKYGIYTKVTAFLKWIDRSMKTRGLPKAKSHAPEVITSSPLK

A word on the Kd: it is the free concentration of one partner at which half of the binding sites on the other are occupied at equilibrium, for simple one-to-one binding. Higher therefore signals lower affinity. Take “human adenovirus serotype 4 (Ad4), virus particle (from UniProt P49810)”: in assay [1], the Kd is 2480 nM.

B1: Ad12 partner of the row Ad12-sCAR* (other)
chain: SNTPYDPLTLWTTPDPPPNCSLIQELDAKLTLCLTKNGSIVNGIVSLVGVKGNLLNIQSTTTTVGVHLVFDEQGRLITSTPTALVPQASWGYRQGQSVSTNTVTNGLGFMPNVSAYPRPNASEAKSQMVSLTYLQGDTSKPITMKVAFNGITSLNGYSLTFMWSGLSNYINQPFSTPSCSFSYITQE
In the assay with sCAR, B1 showed a Kd of 15 nM.

B2: Ad5 partner of the row Ad5-sCAR* (other)
chain: GAITVGNKNNDKLTLWTTPAPSPNCRLNAEKDAKLTLVLTKCGSQILATVSVLAVKGSLAPISGTVQSAHLIIRFDENGVLLNNSFLDPEYWNFRNGDLTEGTAYTNAVGFMPNLSAYPKSHGKTAKSNIVSQVYLNGDKTKPVTLTITLNGTQETGDTTPSAYSMSFSWDWSGHNYINEIFATSSYTFSYIAQE
The molecule B2 displayed a dissociation constant Kd with sCAR of 7.9 nM.
